Test results as given in the supplement of paper PMC10065799, “High-throughput profiling of sequence recognition by tyrosine kinases and SH2 domains using bacterial peptide display” (eLife, 2023).

Key:
SHP2-C SH2 = test: SH2 binding enrichment of the phosphorylated peptide, bacterial display (enrichment ratio); higher = better substrate or ligand; peptides without Tyr show the background
c-Src SH2 = test: as above
Grb2 SH2 = Grb2 SH2 (UniProt P62993); test: as above
AncSZ = test: phosphorylation enrichment, bacterial display (enrichment ratio); higher = better substrate or ligand; peptides without Tyr show the background
Jak2 = Jak2 (UniProt O60674); test: as above
MERTK = MERTK (UniProt Q12866); test: as above
Chain of MERTK (Q12866 whole entry, looked up): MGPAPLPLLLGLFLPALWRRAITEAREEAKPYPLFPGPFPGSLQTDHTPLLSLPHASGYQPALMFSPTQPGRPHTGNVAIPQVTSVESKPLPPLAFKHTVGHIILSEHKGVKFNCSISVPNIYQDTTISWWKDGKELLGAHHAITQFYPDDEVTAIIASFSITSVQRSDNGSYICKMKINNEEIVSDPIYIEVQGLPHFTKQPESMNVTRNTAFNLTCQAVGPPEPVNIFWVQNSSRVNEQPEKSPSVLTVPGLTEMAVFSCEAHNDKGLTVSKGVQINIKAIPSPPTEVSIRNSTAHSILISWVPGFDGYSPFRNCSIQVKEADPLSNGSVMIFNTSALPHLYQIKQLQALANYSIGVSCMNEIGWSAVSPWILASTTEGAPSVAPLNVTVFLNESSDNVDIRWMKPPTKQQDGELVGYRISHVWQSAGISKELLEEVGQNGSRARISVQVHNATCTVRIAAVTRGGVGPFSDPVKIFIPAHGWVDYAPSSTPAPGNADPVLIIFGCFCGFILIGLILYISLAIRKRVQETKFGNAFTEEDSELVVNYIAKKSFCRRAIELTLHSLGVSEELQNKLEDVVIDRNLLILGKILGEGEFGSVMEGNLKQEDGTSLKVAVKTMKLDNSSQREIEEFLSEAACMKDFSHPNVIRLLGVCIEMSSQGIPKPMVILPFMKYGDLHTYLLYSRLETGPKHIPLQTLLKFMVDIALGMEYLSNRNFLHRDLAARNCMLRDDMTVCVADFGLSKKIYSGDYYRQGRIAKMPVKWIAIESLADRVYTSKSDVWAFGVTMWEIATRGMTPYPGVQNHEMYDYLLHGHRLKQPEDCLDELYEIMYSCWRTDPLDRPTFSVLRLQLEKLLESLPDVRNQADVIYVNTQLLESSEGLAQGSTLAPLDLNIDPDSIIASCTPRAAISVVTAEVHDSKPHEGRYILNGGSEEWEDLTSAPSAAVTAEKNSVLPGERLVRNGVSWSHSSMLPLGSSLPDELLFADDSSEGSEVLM

c-Abl (mouse) = test: as above
EPHB2 = EPHB2 (UniProt P29323); test: as above
Chain of EPHB2 (P29323 whole entry, looked up): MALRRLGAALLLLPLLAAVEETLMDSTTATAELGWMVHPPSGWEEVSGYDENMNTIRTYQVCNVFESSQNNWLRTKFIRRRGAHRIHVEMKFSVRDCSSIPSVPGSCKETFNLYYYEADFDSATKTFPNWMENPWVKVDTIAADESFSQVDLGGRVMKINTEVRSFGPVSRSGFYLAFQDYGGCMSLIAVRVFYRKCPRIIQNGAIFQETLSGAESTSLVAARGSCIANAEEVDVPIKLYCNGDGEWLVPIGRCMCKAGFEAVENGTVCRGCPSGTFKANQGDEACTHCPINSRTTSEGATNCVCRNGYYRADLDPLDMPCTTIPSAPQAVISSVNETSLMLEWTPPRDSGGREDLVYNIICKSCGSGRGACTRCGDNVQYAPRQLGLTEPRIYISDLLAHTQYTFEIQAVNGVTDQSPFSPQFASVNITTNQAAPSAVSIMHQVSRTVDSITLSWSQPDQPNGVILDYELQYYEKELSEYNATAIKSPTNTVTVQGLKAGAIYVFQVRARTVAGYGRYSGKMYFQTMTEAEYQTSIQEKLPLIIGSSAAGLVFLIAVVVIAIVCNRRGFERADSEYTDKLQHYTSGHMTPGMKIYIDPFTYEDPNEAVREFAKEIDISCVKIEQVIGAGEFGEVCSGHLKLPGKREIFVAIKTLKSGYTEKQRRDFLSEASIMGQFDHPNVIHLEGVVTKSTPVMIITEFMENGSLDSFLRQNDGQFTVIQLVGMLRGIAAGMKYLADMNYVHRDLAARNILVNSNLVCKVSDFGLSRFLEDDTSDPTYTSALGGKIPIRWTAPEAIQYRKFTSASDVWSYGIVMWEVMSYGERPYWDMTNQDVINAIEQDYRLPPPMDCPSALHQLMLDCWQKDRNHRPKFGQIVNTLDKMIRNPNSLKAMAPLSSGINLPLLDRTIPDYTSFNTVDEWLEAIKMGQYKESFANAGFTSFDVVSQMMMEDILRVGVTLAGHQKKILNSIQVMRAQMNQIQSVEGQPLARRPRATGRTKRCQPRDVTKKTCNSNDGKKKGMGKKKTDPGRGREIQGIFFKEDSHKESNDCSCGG

Fer (mouse) = test: as above
c-Src = test: as above
EPHB1 = EPHB1 (UniProt P54762); test: as above
FGFR1 = FGFR1 (UniProt P11362); test: as above
Chain of FGFR1 (P11362 whole entry, looked up): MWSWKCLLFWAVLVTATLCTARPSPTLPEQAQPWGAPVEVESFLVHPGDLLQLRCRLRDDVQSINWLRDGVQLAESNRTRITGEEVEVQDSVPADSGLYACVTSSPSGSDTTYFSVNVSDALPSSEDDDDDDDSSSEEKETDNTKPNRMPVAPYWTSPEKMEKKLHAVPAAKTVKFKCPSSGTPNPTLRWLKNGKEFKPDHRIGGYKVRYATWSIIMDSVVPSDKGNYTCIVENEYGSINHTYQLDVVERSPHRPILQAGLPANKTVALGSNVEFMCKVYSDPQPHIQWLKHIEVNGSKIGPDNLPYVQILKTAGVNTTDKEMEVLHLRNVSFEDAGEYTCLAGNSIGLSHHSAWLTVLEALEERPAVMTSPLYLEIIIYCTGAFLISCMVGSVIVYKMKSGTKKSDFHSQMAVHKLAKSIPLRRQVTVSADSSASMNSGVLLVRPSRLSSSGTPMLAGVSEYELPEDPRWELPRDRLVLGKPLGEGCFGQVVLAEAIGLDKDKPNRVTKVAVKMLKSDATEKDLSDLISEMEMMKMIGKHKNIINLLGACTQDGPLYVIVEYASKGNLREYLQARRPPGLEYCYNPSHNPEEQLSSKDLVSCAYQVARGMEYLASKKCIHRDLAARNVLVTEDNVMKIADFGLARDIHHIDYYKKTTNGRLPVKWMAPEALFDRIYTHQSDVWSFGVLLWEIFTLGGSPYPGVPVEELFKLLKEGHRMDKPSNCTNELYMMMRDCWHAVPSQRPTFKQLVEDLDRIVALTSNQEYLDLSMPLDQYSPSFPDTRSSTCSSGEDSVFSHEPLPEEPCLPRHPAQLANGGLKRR

Fyn = Fyn (UniProt P06241); test: as above
Fes = Fes (UniProt P07332); test: as above
Chain of Fes (P07332 whole entry, looked up): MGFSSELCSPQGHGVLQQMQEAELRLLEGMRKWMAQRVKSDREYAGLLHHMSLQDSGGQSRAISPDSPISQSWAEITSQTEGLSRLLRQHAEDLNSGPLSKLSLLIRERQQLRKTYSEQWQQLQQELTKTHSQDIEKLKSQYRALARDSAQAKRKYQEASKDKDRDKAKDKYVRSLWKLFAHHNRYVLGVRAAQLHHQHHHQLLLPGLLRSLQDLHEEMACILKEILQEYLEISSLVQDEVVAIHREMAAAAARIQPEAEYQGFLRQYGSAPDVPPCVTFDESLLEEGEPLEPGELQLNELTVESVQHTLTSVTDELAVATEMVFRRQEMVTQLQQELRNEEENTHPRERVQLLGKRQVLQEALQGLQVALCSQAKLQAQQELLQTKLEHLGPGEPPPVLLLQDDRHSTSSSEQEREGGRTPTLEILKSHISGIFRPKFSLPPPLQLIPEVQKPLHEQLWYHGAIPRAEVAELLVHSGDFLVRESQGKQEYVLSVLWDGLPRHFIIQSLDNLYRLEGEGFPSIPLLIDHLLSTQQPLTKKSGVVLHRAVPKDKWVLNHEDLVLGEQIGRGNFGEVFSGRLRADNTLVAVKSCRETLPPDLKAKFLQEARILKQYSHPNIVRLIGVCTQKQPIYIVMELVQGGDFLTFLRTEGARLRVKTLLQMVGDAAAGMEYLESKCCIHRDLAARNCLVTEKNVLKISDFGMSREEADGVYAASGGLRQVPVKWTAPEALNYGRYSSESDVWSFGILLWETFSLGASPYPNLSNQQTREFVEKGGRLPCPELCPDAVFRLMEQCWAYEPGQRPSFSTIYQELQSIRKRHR

Hck = Hck (UniProt P08631); test: as above
FGFR3 = FGFR3 (UniProt P22607); test: as above
Chain of FGFR3 (P22607 whole entry, looked up, the tested form may be a part): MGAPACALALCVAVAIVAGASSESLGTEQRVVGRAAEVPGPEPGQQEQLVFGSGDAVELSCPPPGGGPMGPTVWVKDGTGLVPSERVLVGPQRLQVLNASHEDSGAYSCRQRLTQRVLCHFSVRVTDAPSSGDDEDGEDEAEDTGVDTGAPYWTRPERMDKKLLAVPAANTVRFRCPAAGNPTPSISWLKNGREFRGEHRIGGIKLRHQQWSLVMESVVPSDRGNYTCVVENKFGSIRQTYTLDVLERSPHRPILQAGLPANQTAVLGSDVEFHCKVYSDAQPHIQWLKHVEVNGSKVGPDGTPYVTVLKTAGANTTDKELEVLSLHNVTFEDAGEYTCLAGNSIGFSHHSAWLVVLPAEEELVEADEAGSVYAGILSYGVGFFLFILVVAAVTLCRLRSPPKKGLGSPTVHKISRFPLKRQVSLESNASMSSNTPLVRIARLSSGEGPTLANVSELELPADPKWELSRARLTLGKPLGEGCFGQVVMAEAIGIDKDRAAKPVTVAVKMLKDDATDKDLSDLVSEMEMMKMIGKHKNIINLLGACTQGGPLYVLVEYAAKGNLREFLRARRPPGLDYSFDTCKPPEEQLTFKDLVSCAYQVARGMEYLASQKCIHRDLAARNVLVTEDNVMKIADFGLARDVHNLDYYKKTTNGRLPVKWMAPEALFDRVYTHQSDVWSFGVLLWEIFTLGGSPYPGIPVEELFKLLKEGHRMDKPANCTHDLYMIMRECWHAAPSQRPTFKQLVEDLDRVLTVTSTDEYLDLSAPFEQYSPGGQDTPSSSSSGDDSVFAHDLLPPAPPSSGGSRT
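Wherever SH2 binding enrichment of the phosphorylated peptide, bacterial display is given: peptide library displayed on the E. coli surface as eCPX fusions, selected cells deep-sequenced, score is each peptide's frequency after selection divided by its frequency in the input.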
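Wherever phosphorylation enrichment, bacterial display is given: 11-residue human phosphosite peptides and single-mutation variants displayed on the E. coli surface, counted by deep sequencing, each peptide's frequency after selection divided by its frequency in the unselected input library; frequency after pTyr selection over input frequency; kinase dosed for 20-30% of maximal phosphorylation in three min.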

Chain of Grb2 SH2 (P62993 whole entry, looked up): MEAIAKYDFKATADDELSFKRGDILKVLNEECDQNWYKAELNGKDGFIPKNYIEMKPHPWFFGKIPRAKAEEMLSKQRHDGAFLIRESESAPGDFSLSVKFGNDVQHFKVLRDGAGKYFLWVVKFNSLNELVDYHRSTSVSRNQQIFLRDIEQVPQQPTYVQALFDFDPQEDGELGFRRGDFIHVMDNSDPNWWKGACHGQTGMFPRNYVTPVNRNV

| Sequence | SH2 binding enrichment (SHP2-C SH2) | SH2 binding enrichment (c-Src SH2) | SH2 binding enrichment (Grb2 SH2) | phosphorylation enrichment (AncSZ) | phosphorylation enrichment (Jak2) | phosphorylation enrichment (MERTK) | phosphorylation enrichment (c-Abl (mouse)) | phosphorylation enrichment (EPHB2) | phosphorylation enrichment (Fer (mouse)) | phosphorylation enrichment (c-Src) | phosphorylation enrichment (EPHB1) | phosphorylation enrichment (FGFR1) | phosphorylation enrichment (Fyn) | phosphorylation enrichment (Fes) | phosphorylation enrichment (Hck) | phosphorylation enrichment (FGFR3) |
| --- | --- | --- | --- | --- | --- | --- | --- | --- | --- | --- | --- | --- | --- | --- | --- | --- |
| GVTLLYYGRYN [ADGRD1_Y85] | 1.24 | 1.05 | 1.28 | 1.5 | 1.85 | 0.728 | 0.852 | 0.92 | 0.577 | 3.17 | 0.808 | 0.611 | 2.77 | 1.31 | 2.13 | 0.826 |
| GYSRHYEDGYP [CTNND1_Y217] | 0.676 | 1.46 | 0.818 | 0.691 | 0.623 | 0.524 | 0.67 | 0.465 | 0.374 | 0.488 | 0.383 | 0.391 | 0.382 | 0.722 | 0.383 | 0.529 |
| HCYNSYTYPRL [PAK7_Y316_S312C] | 0.799 | 5.34 | 0.902 | 2.4 | 1.33 | 2.84 | 0.932 | 0.784 | 0.684 | 0.725 | 0.775 | 1.35 | 0.943 | 1.47 | 0.74 | 0.884 |
| HDKEYYSVHNK [MET_Y1235_Y1230H] | 1.67 | 0.783 | 0.939 | 1.24 | 0.75 | 0.503 | 0.706 | 0.472 | 0.865 | 0.506 | 0.714 | 2.8 | 0.739 | 0.729 | 0.911 | 1.88 |
| HDRGNYVRLNM [RECQL4_Y353] | 2.16 | 1.32 | 0.95 | 0.944 | 1.09 | 0.837 | 0.929 | 1.35 | 0.671 | 0.592 | 2.3 | 0.711 | 0.993 | 1.3 | 0.765 | 0.943 |
| HDRNTYEKFLG [TF_Y666_YF] | 0.797 | 0.882 | 1.11 | 1.17 | 1.29 | 0.936 | 0.99 | 0.951 | 0.378 | 2.82 | 0.525 | 0.484 | 2.42 | 1.33 | 1.44 | 0.751 |
| HFGCVYLGTLL [MET_Y1093_H1094L] | 0.553 | 0.483 | 0.692 | 2.29 | 2.07 | 0.597 | 1.39 | 1.1 | 0.923 | 4.61 | 1.02 | 0.925 | 0.897 | 2.24 | 1.01 | 1.67 |
| HFPDVYAREQL [ALX3_Y181_YF] | 0.682 | 0.56 | 0.832 | 0.713 | 0.616 | 0.408 | 0.667 | 0.703 | 0.561 | 0.91 | 0.619 | 0.55 | 0.588 | 1.04 | 0.722 | 0.514 |
| HFPFQYHRQLY [F12_Y53] | 2.15 | 1.28 | 1.27 | 1.03 | 0.723 | 0.566 | 0.508 | 0.572 | 0.725 | 0.471 | 0.583 | 0.449 | 0.59 | 1.28 | 0.656 | 0.865 |
| HGAGHYEDTIL [ALK_Y1604_P1599H] | 0.791 | 2.81 | 0.775 | 1.26 | 1 | 0.682 | 0.958 | 0.652 | 4.64 | 0.752 | 0.829 | 0.787 | 0.734 | 1.17 | 0.724 | 0.978 |
| HILRVYGGVLP [PCNX4_Y999] | 1.01 | 0.635 | 0.913 | 1.07 | 0.765 | 0.444 | 0.874 | 0.676 | 0.532 | 0.588 | 0.591 | 0.755 | 0.699 | 1.12 | 1.01 | 1 |
| HKANEYFPVVL [ADAMTS18_Y764_YF] | 0.53 | 0.462 | 0.963 | 0.872 | 1.83 | 0.528 | 0.628 | 1.5 | 0.736 | 0.556 | 0.951 | 8.42 | 0.807 | 0.896 | 0.533 | 4.38 |
| HKLSYNEYDFE [BTK_Y40_Y40N] | 0.412 | 0.79 | 1.14 | 1.27 | 0.968 | 0.427 | 0.593 | 0.824 | 0.473 | 2.02 | 0.986 | 0.756 | 3.26 | 1.13 | 0.74 | 0.822 |
| HLELNYKEDEF [MME_Y502_Y497H_YF] | 0.392 | 0.697 | 0.905 | 0.993 | 0.903 | 0.589 | 0.749 | 0.504 | 0.64 | 0.43 | 0.594 | 1.08 | 0.557 | 0.967 | 0.565 | 1.48 |
| HLTNQYMQRVA [PABPC4_Y382] | 0.929 | 0.473 | 1.01 | 0.525 | 0.406 | 0.277 | 1.04 | 0.316 | 0.446 | 0.351 | 0.307 | 0.402 | 0.356 | 0.429 | 0.324 | 0.33 |
| HNGDRYFKGIV [DCX_Y64_R59H] | 0.762 | 0.413 | 0.821 | 0.707 | 0.529 | 0.692 | 0.585 | 0.344 | 0.366 | 0.585 | 0.449 | 0.286 | 0.515 | 0.716 | 0.429 | 0.542 |
| HNQDDYSYPSR [LDLR_Y845_G844D] | 0.616 | 0.829 | 1.29 | 5.73 | 0.751 | 0.653 | 0.776 | 2.52 | 0.567 | 0.597 | 1.2 | 0.82 | 0.664 | 0.856 | 0.651 | 0.79 |
